Four molecules from US20250376535A1 (BEIJING STARMAB BIOMED TECHNOLOGY, published 2025) can be followed below.

For one assay, the target named is T1, 4-1BB Fc (human, UniProt Q07011 24-183).
T1 construct: also called rh-41BB; 41BB-hFc
In words: blocking ELISA: 41BBL-mFc (1.m32) coated, VHH premixed with 41BB-hFc, bound 41BB-hFc detected with anti-human IgG Fc-HRP, OD450. On the technique in general: An ELISA detects its analyte on a solid surface through an enzyme-linked reagent.

Another assay has as its target T2, Human 41BB antigen (BLI) (human, UniProt Q07011 24-183).
T2 construct: also called 41BB protein
In words: BLI, VHH-His on anti-His tips, human 41BB in solution.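 Note: association tracked for 200 s, after which dissociation was followed in 1×PBS free of 41BB protein.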 A general note: BLI is a label-free optical method that tracks binding on a fibre tip over time.

Assay [1] concerns the target T3, Human CD40 antigen (recombinant, BLI) (human, UniProt P25942 21-193).
T3 construct: also called rh-CD40
In words: BLI, VHH-His on anti-His tips, human CD40 in solution.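 Note: kinetics measured at 30 °C in PBS pH 7.2, association tracked for 200 s, then dissociation followed in PBS lacking CD40.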

The target of assay [2] is T4, recombinant human CD40-Fc (human, UniProt P25942 21-193).
T4 construct: also called rh-CD40-Fc; CD40-hFc
T4 sequence (P25942 21-193): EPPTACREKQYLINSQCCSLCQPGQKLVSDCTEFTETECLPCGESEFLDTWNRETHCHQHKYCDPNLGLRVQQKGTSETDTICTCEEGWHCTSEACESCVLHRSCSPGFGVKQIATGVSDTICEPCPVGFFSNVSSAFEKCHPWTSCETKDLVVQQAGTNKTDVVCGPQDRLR
In words: blocking ELISA: CD40L-mFc (1.m18) coated, VHH premixed with CD40-hFc, bound CD40-hFc detected with anti-human IgG Fc-HRP, OD450.
Procedure: The 96-well plate was coated with 100 μL of 1 μg/mL CD40L-mFc prepared in antigen coating buffer overnight at 4° C., then blocked with 2% BSA for 1 hour at 25° C. […] The plate was washed with PBST four times, then incubated with Mouse anti-human IgG Fc-HRP at 25° C. for 1 hour. After four times of wash with PBST, the plate was developed with 100 μL of TMB per well for 10 to 20 min in the dark and then stopped by adding 50 μL of Stop Solution.

Assay [3] addresses T4, recombinant human CD40-Fc. In words: ELISA, CD40-Fc coated, VHH at 1.6 nM.
Procedure: (§1) After four times washing with PBST, the plate was incubated with detecting antibody anti-his-HRP (1:4000 dilution) 100 μl per well for one hour with shaking at 60 rpm. The plate was developed with 100 μL of TMB per well in the dark and then stopped by 50 μL of stop solution per well.
Assay [4] addresses T4, recombinant human CD40-Fc. In words: ELISA, CD40-Fc coated, VHH at 200 nM.
Procedure: as §1
Assay [5] has as its target T4, recombinant human CD40-Fc. In words: ELISA, CD40-Fc coated, VHH at 1000 nM.
Procedure: as §1
The target in assay [6] is T4, recombinant human CD40-Fc. In words: ELISA, CD40-Fc coated, VHH at 0.32 nM.
Procedure: as §1
Assay [7] has as its target T4, recombinant human CD40-Fc. In words: ELISA, CD40-Fc coated, VHH at 40 nM.
Procedure: as §1
Assay [8] concerns the target T4, recombinant human CD40-Fc. In words: ELISA, CD40-Fc coated, VHH at 0.064 nM.
Procedure: as §1
Assay [9] concerns the target T4, recombinant human CD40-Fc. In words: ELISA, CD40-Fc coated, VHH at 0.0026 nM.
Procedure: as §1
The target in assay [10] is T4, recombinant human CD40-Fc. In words: ELISA, CD40-Fc coated, VHH at 0.013 nM.
Procedure: as §1
The target in assay [11] is T4, recombinant human CD40-Fc. In words: ELISA, CD40-Fc coated, VHH at 8 nM.
Procedure: as §1
Assay [12] addresses T5, recombinant human OX40-Fc (human, UniProt P43489 29-214).
T5 construct: also called rh-OX40-Fc; human OX40 hFC (R & D systems)
T5 sequence: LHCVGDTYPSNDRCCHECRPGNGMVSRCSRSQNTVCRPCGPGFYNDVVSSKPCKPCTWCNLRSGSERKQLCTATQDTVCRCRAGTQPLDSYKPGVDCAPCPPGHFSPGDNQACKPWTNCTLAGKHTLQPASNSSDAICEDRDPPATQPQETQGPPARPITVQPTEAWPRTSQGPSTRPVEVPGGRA
In words: ELISA, OX40-Fc coated, VHH at 0.064 nM.
Procedure: (§2) After four times washing with PBST, the plate was incubated with detecting antibody anti-his-HRP (1:4000 dilution) 100 μl per well for one hour with shaking at 60 rpm. The plate was developed with 100 μL of TMB per well in the dark and then stopped by 50 μL of stop solution per well. […] Data was analyzed using GraphPad Prisma 9.1.

For assay [13], the target named is T5, recombinant human OX40-Fc. In words: ELISA, OX40-Fc coated, VHH at 1000 nM.
Procedure: as §2
Assay [14] addresses T5, recombinant human OX40-Fc. In words: BLI, VHH-His on anti-His tips, OX40 hFc in solution.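 Note: kinetics recorded at 30 °C in PBS pH 7.2, with 200 s of association followed by dissociation monitored in PBS lacking the OX40 protein.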
Procedure: Bio-Layer Interferometry (BLI) kinetic binding analysis. […] Affinity measurements were performed with Gator equipped with Anti-Penta-His capture (HIS1K) biosensor tips. The assay was performed at 30° C. in 1×PBS buffer (Gibco®, PBS pH7.2). Samples were agitated at 1000 rpm. Prior to analysis, sensors were humidified for 15 min. Purified anti-OX40 VHH was tested for its binding capacity with HIS1K sensor tips. Tips were loaded using 20 μg/ml of anti-OX40 VHH. Loading proceeded for 300 s resulting in capture levels of between 1.8 and 2 nm. […] Association was initiated and monitored for 200 sec, after which tips were transferred to 1×PBS buffer without Factor protein (Gibco, PBS pH 7.2), in order to monitor dissociation. Sensor data was collected throughout the experiments, processed, and analyzed using the Gator data analysis software.
The target in assay [15] is T5, recombinant human OX40-Fc. In words: ELISA, OX40-Fc coated, VHH at 0.0128 nM.
Procedure: as §2
Assay [16] concerns the target T5, recombinant human OX40-Fc. In words: ELISA, OX40-Fc coated, VHH at 8 nM.
Procedure: as §2
Assay [17] has as its target T5, recombinant human OX40-Fc. In words: ELISA, OX40-Fc coated, VHH at 200 nM.
Procedure: as §2
The target in assay [18] is T5, recombinant human OX40-Fc. In words: ELISA, OX40-Fc coated, VHH at 0.32 nM.
Procedure: as §2
Assay [19] has as its target T5, recombinant human OX40-Fc. In words: ELISA, OX40-Fc coated, VHH at 40 nM.
Procedure: as §2
Assay [20] deals with T5, recombinant human OX40-Fc. In words: ELISA, OX40-Fc coated, VHH at 1.6 nM.
Procedure: as §2
Assay [21] has as its target T5, recombinant human OX40-Fc. In words: blocking ELISA, OX40-hFc premixed with VHH on coated OX40L-mFc; partial blocker; partial blocker.
Procedure: Blocking Assay. The 96-well plate was coated with 100 μL of 1 μg/mL OX40L-mFc prepared in antigen coating buffer overnight at 4° C., then blocked with 2% BSA for 1 hour at 25° C. […] The plate was washed with PBST four times, then incubated with Mouse anti-human IgG Fc-HRP at 25° C. for 1 hour. After four times of wash with PBST, the plate was developed with 100 μL of TMB per well for 10 to 20 min in the dark and then stopped by adding 50 μL of Stop Solution.
Assay [22] deals with T6, human serum albumin (human, UniProt P02768 25-609).
T6 construct: also called HSA
In words: BLI (Gator), His-tagged VHH on anti-His sensor, HSA 100 nM in solution.
Procedure: (§3) Kinetic binding analysis of MSA VHHs were performed with Gator Prime system equipped with analyze software. […] The experiments were done at 30° C. Prior to analysis, sensors were socked in Q buffer for 600 sec with shaking at 1000 rpm, and then 2 μM of HIS tagged MSA VHHs were loaded to Anti-His sensors with shaking at 400 rpm for 120 sec. Loaded sensors were transferred into Q buffer for 60 sec. Association of HSA or MSA at 100 nM was initiated and monitored for 120-180 sec with shaking at 1000 rpm, and finally dissociation in Q buffer for 120-180 sec with 1000 rpm shaking. Software V2.0 (Gator Bio) was used for data analysis. The on-rate (Kₒₙ) and off-rate (Kd) were determined by fitting of the association and dissociation phases of each sample. The mathematical model used assumes a 1:1 stoichiometry, fitting only one analyte in solution binding to one binding site on the surface. The equilibrium dissociation constant (KD), a measure for affinity, was then calculated as the ratio of Kd and Kₒₙ.

The target in assay [23] is T7, murine serum albumin (murine, UniProt P07724 25-608).
T7 construct: As antigen 'MSA' means murine serum albumin; the VHHs also carry the label MSA; also called MSA
In words: ELISA, murine serum albumin coated, VHH 0.128 nM.
Procedure: The 96-well plate was coated with 100 μL per well of HSA or MSA (murine serum albumin) prepared at 1 μg/ml in coating buffer at 4° C. overnight, then blocked with 200 μL per well of casein for one hour at room temperature. MSA VHHs were made into a series of dilutions and added to HSA or MSA coated plate for one hour incubation. The plate was washed with PBST four times, then incubated with Streptavidin conjugated with HRP at 25° C. for 1 hour. After three times of wash with 250 μL PBST per well, the plate was developed with 100 μL of TMB per well for 10 to 20 min in the dark and then stopped by adding 100 μL of Stop Solution.

The target of assay [24] is T6, human serum albumin. In words: BLI (Gator), His-tagged VHH on anti-His sensor, HSA 100 nM in solution. This is another data set of the same source.
Procedure: as §3
The target in assay [25] is T7, murine serum albumin. In words: BLI (Gator), His-tagged VHH on anti-His sensor, murine serum albumin 100 nM in solution.
Procedure: as §3
Assay [26] concerns the target T7, murine serum albumin. The description is as above. This is another data set of the same source.
Procedure: as §3

Like-named read-outs stand apart in the source and are kept apart here. A value given as a limit tells only on which side of the number the result lay.

As a reminder, the Kd is the free concentration of one partner at which half of the binding sites on the other are occupied at equilibrium, for simple one-to-one binding. By koff is commonly meant the rate constant with which the complex falls apart. As a reminder, the kon is the second-order rate constant of association. The term EC50 denotes the concentration at which the effect is half-maximal.

T3 sequence (P25942 21-193 limits assumed): as the sequence (P25942 21-193) above
T2 sequence (Q07011 24-183 limits assumed): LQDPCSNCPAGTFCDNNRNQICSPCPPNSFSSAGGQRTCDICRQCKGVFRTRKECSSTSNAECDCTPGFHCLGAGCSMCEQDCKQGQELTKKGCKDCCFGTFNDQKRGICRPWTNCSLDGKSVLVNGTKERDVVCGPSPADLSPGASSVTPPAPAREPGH
T1 sequence (Q07011 24-183): as the sequence (Q07011 24-183 limits assumed) above
Procedure for 4-1BB Fc: The 96-well plate was coated with 100 μL of 1 μg/mL 41BBL-mFc prepared in antigen coating buffer overnight at 4° C., then blocked with 2% BSA for 1 hour at 25° C. […] The plate was washed with PBST four times, then incubated with Mouse anti-human IgG Fc-HRP at 25° C. for 1 hour. After four times of wash with PBST, the plate was developed with 100 μL of TMB per well for 10 to 20 min in the dark and then stopped by adding 50 μL of Stop Solution.
Procedure for Human 41BB antigen (BLI): Tips were loaded using 20 μg/ml of anti-41BB VHH. Loading proceeded for 300 sec resulting in capture levels of between 1.8 and 2 nm. […] Association was initiated and monitored for 200 sec, after which tips were transferred to 1×PBS buffer without 41BB protein, in order to monitor dissociation.

B1: 4-1BB-59 (VHH, not shown: small tags and cut ends)
VHH: EVQLVESGGGLVQPGESLRLSCAASGDTVSGYVMLWWRQAPGKERELVAAISSVGYTYYTDSVKGRFTISRDNAKNTVYLQMNSLKPEDTAVYYCAADPASISTRSAYWGQGTQVTVSS
For the molecule B1, in the assay with 4-1BB Fc, the “IC50 (read off the curve)” value is around 0.5 nM. In the assay with Human 41BB antigen (BLI), this molecule returned a Kd of 2.35 nM, a koff of 0.00121 s⁻¹ and a kon of 512000 M⁻¹ s⁻¹.

B2: pgDD40-HZ-24 (VHH, not shown: small tags and cut ends)
VHH: EVQLVESGGGSVQAGGSLRLSCAASLSTFSNYRMGWFRRAPGKERELVARIEPHGVVDYGDSVKGRFTISRDNAKNTVTVYLHMNSLKPEDTAVYYCNALRLISGRYDPLFSSWGQGTQVTVSS
notes: also called pgDD40-HG-24
As to B2, the equilibrium dissociation constant (Kd) in assay [1] was below 0.001 nM. Also, in assay [1], the koff was 1e-05 s⁻¹. In assay [1], the on-rate (kon) worked out at 607000 M⁻¹ s⁻¹. Further, in assay [2], the “IC50 (read off the curve)” value is around 20 nM. The OD450 was 0.903 in assay [3]; 1.84 in assay [4]; 1.81 in assay [5]; 0.251 in [6]; 1.71 in [7]; 0.084 in assay [8]. Also, the OD450 is 0.078 in assay [9], 0.055 in assay [10] and 1.7 in assay [11].

B3: pgXX88-SZ-4 (VHH, not shown: small tags and cut ends)
VHH: QVQLVESGGGLAQPGSSLRLSCTASGTVFSILSATWFRQAPGKAHEARELVAFISSDGVSMHADSVKGRFTISRDNAASTVYLQMDNLQPEDTAVYFCKLSNSMMSLEYWGRGTQVTVSS
notes: also called ppXX88-SZ-4
In the case of B3, the OD450 in [12] came out at 0.076; in assay [13] it was 1.78; in assay [15], 0.062; in assay [16], 1.12; in assay [17], 1.58; in [18], 0.126. The OD450 in assay [19] was 1.49; in [20], 0.463. The Kd in [14] worked out at 0.185 nM. Also, in assay [14], the koff was 8.73e-05 s⁻¹. The kon in assay [14] was 472000 M⁻¹ s⁻¹. Moreover, in assay [21], the EC50 was 1.98 nM.

B4: MSA4 (VHH)
VHH: EVQLVEFGGGLVQAGGSLRLSCAASGRTDSAYRMGWFRQAPGKEREFVSAINWSDGRTVYLDSVKGRFTISRDNAKNMVYLQMNSLKPEDTAVYYCAADPDSRLYYTVPQNYDYWGQGTQVTVSS
notes: Llama single domain antibody with C-terminal His-tag, made in HEK293; not shown: C-terminal His-tag
With B4, the Kd was 7.16 nM with human serum albumin [22], 11.3 nM with human serum albumin [24], 8.83 nM in the assay with murine serum albumin [25] and 4.49 nM with murine serum albumin [26]. The dissociation rate constant (koff) with human serum albumin [22] came to 0.000752 s⁻¹; with human serum albumin [24] it was 0.00101 s⁻¹; with murine serum albumin [25], 0.0011 s⁻¹; in the assay with murine serum albumin [26] it was 0.000644 s⁻¹. Moreover, the association rate constant (kon) with human serum albumin [22] was found to be 105000 M⁻¹ s⁻¹; with human serum albumin [24], 89600 M⁻¹ s⁻¹; in the assay with murine serum albumin [25], 125000 M⁻¹ s⁻¹; in the assay with murine serum albumin [26] it was 143000 M⁻¹ s⁻¹. The “ELISA OD450” value with murine serum albumin [23] worked out at 0.07.
